Experimental data as given in US20130177528A1, “COMPOSITIONS AND METHODS FOR INHIBITING VIRAL INFECTION” (WESTERN UNIVERSITY OF HEALTH SCIENCES, priority 2011, published 2013).

Assays:
HSV-1 (KOS) gL86 = experiment: HSV-1 infection of HeLa cells at MOIs 5, 15 and 25 PFU/cell (Example 6); assay type: cell-based, herpes simplex virus type-1; conditions: virus pre-incubated 180 min, 6 hr
Description: HeLa cells were each grown to 100% confluency in 96-well plates. The β-galactosidase-expressing recombinant virus HSV-1 (KOS) HSV-1 gL86 […] was pre-incubated at MOIs of 5 (FIG. 10, panel A), 15 (FIG. 10, panel B) and 25 (FIG. 10, panel C) plaque-forming units per cell (PFU) with VCN (VN), CN or ADAM15 (Ad15) at the concentrations indicated or mock treated with 1 X phosphate saline buffer for 180 min at room temperature. After 6 hr, the cells were washed, permeabilized and incubated with ONPG substrate (3.0 mg/ml). The β-gal enzymatic activity was measured at an optical density of 410 nm (OD 410). Mock treated HSV-1 with PBS was used as a […] control ((+) infected with virus alone; (−) uninfected control).

[1] = tested on: HSV-1 strains F, G and MP; experiment: Entry of clinical HSV-1 strains into nectin-1 CHO Ig8 cells, cells pre-incubated with CN (Example 10); assay type: cell-based, herpes simplex virus type-1; conditions: nectin-1 CHO Ig8 cells pre-incubated with 10 μM, MP at 25 pfu/cell, 6 h
Description: (§1) (A) In this experiment nectin-1 Chinese hamster ovary (CHO) Ig8 cells that express β-galactosidase upon viral entry were pre-treated with 10 μM contortrostatin (CN; indicated as treated [Tr]) or mock treated (indicated as untreated [Un]) with phosphate saline buffer for 90 min at room temperature followed by infection using clinical isolates of herpes simplex virus type-1 (HSV-1; F,G, and MP at 25 pfu/cell) for 6 h. The viral entry blocking was measured by o-nitro-phenyl-β-o-galactopyranoside (ONPG) assay as previously described. Error bars represent SD. (B) Confluent monolayers of HeLa cells were infected with HSV-1 (804) strain at 0.01 PFU/cell in presence (panel i) and absence (panel ii) of CN for 2 h at 37° C. Viral replication in HeLa cells were visualized 24 h post-infection for plaques. a=significant differences from corresponding mock-treated controls (P<0.05, t-test).
The next question was to evaluate the broader significance of CN as an anti-HSV agent. Therefore the ability of CN to block viral entry in different clinical virulent strains of HSV-1 (F, G and MP) was tested. Here, nectin-1 expressing CHO Ig8 cells that express β-galactosidase upon viral entry were used. The cells were preincubated with CN at 10 μM and then infected with clinical isolates of HSV-1.

HSV-1 (804) strain = experiment: HSV-1 plaque assay in HeLa cells (Example 11); assay type: cell-based, herpes simplex virus type-1; conditions: 10 μM, 0.01 PFU/cell, 24 h post-infection
Description: as §1
Viral plaque assay. Confluent layers of RPE cells in glass bottom dishes were infected with CMV Ad169 strain in the presence and absence of CN at 0.01 PFU per cell for 2 hrs. This was followed by extensive but gentle washing three times with DMEM media followed by feeding cells with DMEM media. The cells were then incubated at 37° C. for thee days. […] The number of plaques formed were then visualized and quantified as indicated. […] The cells were again washed 5× in PBS and the numbers of plaques were counted. […]

[2] = tested on: HSV-2 (333 gJ-reporter virus); experiment: HSV-2 infection of HeLa cells, ONPG assay (Example 4); assay type: cell-based; conditions: virus pre-incubated; starting concentration 1 mg/ml
Description: In this experiment different clinical strains of HSV-1 (F, G, and MP strains of HSV-1 [37] at 25 pfu/cell) were either pre-incubated with 1×PBS (control) or with CN at the concentrations indicated in FIG. 8, panel A for 90 min at room temperature. After 90 min of incubation the two pools of viruses were incubated with Nectin-1 receptor expressing CHO Igβ cells that express β-galactosidase upon viral entry as described. The viral infection blocking was measured by ONPG assay (FIG. 8, panel A). Similar experiment was conducted using Lac Z encoded HSV-2 (333 gJ-reporter virus). HSV-2 is a genital herpes virus. […] Each value shown is the mean of three or more determinations (±SD).

CMV Ad169 = experiment: CMV plaque assay in RPE cells (Example 5); assay type: cell-based, Cytomegalovirus; conditions: virus pre-incubated with 1 mg/ml for 120 min, MOI 0.01, 3 days
Description: Viral plaque assay. Confluent layers of RPE cells in glass bottom dishes were infected with CMV Ad169 strain in the presence and absence of CN at 0.01 PFU per cell for 2 hrs. This was followed by extensive but gentle washing three times with DMEM media followed by feeding cells with DMEM media. The cells were then incubated at 37° C. for thee days. Cells were then fixed using fixative buffer after 3 days for 30-45 min. The cells were washed three times with 1X PBS before RPE cells stained for Giemsa satin for additional 45 minutes. This was followed by 10 times washing with 1 X PBS to remove excess stain. The number of plaques formed were then visualized and quantified as indicated. In another protocol, confluent layers of HeLa cells (approximately 10^6) in six-well dishes were infected with HSV-1 (804) strain at 0.01 PFU/celI in presence and absence of CN for 2 h at 37° C. After removal of inoculum, monolayers were overlaid with DMEM comaining 2.5% heat-inactivated calf serum and incubated at 37° C. At 24 h, the cells were fixed by using fixative buffer (2% formaldehyde and 0.2% glutaradehyde) at room temperature for 20 min, followed by Giemsa staining for 45 min. The cells were again washed 5× in PBS and the numbers of plaques were counted. The images were taken by using Nikon D-Eclipse-C1 microscope (Nikon Instruments Inc., Melville, N.Y., USA).
A wild type strain of CMV Ad169 was used. The virus was again either pre-incubated with 1×PBS (control) or with CN at 1 mg/ml for 120 min at room temperature. After 120 min of incubation the two pools of viruses were incubated on target retinal pigment epithelial (RPE) cells at MOI (multiplicity of infection; MOI) of 0.01 for additional 2 hrs at 37° C. This was followed by washing to remove unbound viruses and feeding cells with fresh DMEM media. The plates were kept for 3 days before the plaque formation was visually observed (upper panels) and quantified (lower panel) after fixing cells with buffer (FIG. 9). […] Based on visual evidence, the plaque formation was quantified in each group and was scored (lower panel).

B1: contortrostatin (protein)
chain: DAPANPCCDAATCKLTTGSQCADGLCCDQCKFMKEGTVCRRARGDDLDDYCNGISAGCPRNPFHA
HSV-1 (KOS) gL86
  HSV-1 infection of HeLa cells, blocking and rank order (β-gal activity, OD 410): blocked by CN >VCN >ADAM15
[1]
  entry of clinical HSV-1 strains (ONPG assay): blocked the entry of different strains of HSV-1
HSV-1 (804) strain
  HSV-1 plaque formation: blocked the plaque formation
[2]
  HSV-2 infection of HeLa cells (dose response, ONPG assay): blocks infection
CMV Ad169
  CMV cytopathic effect (CPE): significantly lower cytopathic effect
  CMV plaque formation: significantly reduced the plaque formation
  size of CMV plaques: small compared to untreated CMV virions
